Key:
[1] = cell surface flow cytometry, mAb BH026, Expi293; details: control: unmutated MeV-H genotype A
[2] = Western blot of transfected Vero cell lysates (total); details: control: unmutated MeV-H genotype A

Protein	expression_or_secretion ([1]; glycan lost)	expression_or_secretion ([2]; glycan lost)	expression_or_secretion ([1]; glycan gained)	expression_or_secretion ([2]; glycan gained)
MeV-H genotype A (measles virus envelope hemagglutinin protein): N200D (protein) parent chain: MSPQRDRINAFYKDNPHPKGSRIVINREHLMIDRPYVLLAVLFVMFLSLIGLLAIAGIRLHRAAIYTAEIHKSLSTNLDVTNSIEHQVKDVLTPLFKIIGDEVGLRTPQRFTDLVKLISDKIKFLNPDREYDFRDLTWCINPPERIKLDYDQYCADVAAEELMNALVNSTLLETRTTNQFLAVSKGNCSGPTTIRGQFSNMSLSLLDLYLGRGYNVSSIVTMTSQGMYGGTYLVEKPNLSSKRSELSQLSMYRVFEVGVIRNPGLGAPVFHMTNYLEQPVSNDLSNCMVALGELKLAALCHGEDSITIPYQGSGKGVSFQLVKLGVWKSPTDMQSWVPLSTDDPVIDRLYLSSHRGVIADNQAKWAVPTTRTDDKLRMETCFQQACKGKIQALCENPEWAPLKDNRIPSYGVLSVDLSLTVELKIKIASGFGPLITHGSGMDLYKSNHNNVYWLTIPPMKNLALGVINTLEWIPRFKVSPYLFTVPIKEAGEDCHAPTYLPAEVDGDVKLSSNLVILPGQDLQYVLATYDTSRVEHAVVYYVYSPSRSFSYFYPFRLPIKGVPIELQVECFTWDQKLWCRHFCVLADSESGGHITHSGMVGMGVSCTVTREDGTNRR	decreases	decreases		
MeV-H genotype A (measles virus envelope hemagglutinin protein): D416N (protein) parent chain: MSPQRDRINAFYKDNPHPKGSRIVINREHLMIDRPYVLLAVLFVMFLSLIGLLAIAGIRLHRAAIYTAEIHKSLSTNLDVTNSIEHQVKDVLTPLFKIIGDEVGLRTPQRFTDLVKLISDKIKFLNPDREYDFRDLTWCINPPERIKLDYDQYCADVAAEELMNALVNSTLLETRTTNQFLAVSKGNCSGPTTIRGQFSNMSLSLLDLYLGRGYNVSSIVTMTSQGMYGGTYLVEKPNLSSKRSELSQLSMYRVFEVGVIRNPGLGAPVFHMTNYLEQPVSNDLSNCMVALGELKLAALCHGEDSITIPYQGSGKGVSFQLVKLGVWKSPTDMQSWVPLSTDDPVIDRLYLSSHRGVIADNQAKWAVPTTRTDDKLRMETCFQQACKGKIQALCENPEWAPLKDNRIPSYGVLSVDLSLTVELKIKIASGFGPLITHGSGMDLYKSNHNNVYWLTIPPMKNLALGVINTLEWIPRFKVSPYLFTVPIKEAGEDCHAPTYLPAEVDGDVKLSSNLVILPGQDLQYVLATYDTSRVEHAVVYYVYSPSRSFSYFYPFRLPIKGVPIELQVECFTWDQKLWCRHFCVLADSESGGHITHSGMVGMGVSCTVTREDGTNRR			no change	no change
